Results from article PMC3197615.

Legend:
[1] = biological target: human Ephrin A4 on transduced WOP cells (human) (UniProt P52798)
[2] = biological target: mouse Ephrin A4 on transduced WOP cells (mouse) (UniProt O08542)
[3] = biological target: rat Ephrin A4 on transduced WOP cells (rat)

Sequence of UniProt O08542 (O08542 26-175): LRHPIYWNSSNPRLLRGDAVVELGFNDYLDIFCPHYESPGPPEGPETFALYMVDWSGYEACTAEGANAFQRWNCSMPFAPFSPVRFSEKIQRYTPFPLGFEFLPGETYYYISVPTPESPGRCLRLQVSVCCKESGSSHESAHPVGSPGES
Sequence of UniProt P52798 (P52798 26-170): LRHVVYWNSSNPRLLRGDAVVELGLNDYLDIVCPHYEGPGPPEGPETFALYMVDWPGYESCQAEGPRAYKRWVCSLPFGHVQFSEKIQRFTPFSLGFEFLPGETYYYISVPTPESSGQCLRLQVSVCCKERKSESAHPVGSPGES

## IAPE Env (IAPE D2*) on transfected 293T cells (natural protein)
[1]
  fold increase of the titre of IAPE Env pseudotypes over no-Env pseudotypes on transduced WOP cells (fold increase): 231
[2]
  fold increase of the titre of IAPE Env pseudotypes over no-Env pseudotypes on transduced WOP cells (fold increase): 16
[3]
  fold increase of the titre of IAPE Env pseudotypes over no-Env pseudotypes on transduced WOP cells (fold increase): 16
